{
  "source": "the Immune Epitope Database (IEDB)",
  "assay_in_all_cases": "IEDB peptide-MHC binding, purified MHC/competitive/fluorescence; filed as Kd, often an IC50 or EC50 that approximates it; ≥ and ≤ were set here for values at or beyond the usual limits of such assays",
  "details_in_all_cases": "source organism: Rickettsia akari str. Hartford",
  "key": {"[1]": {"target": "HLA-B*40:01"}, "[2]": {"target": "HLA-A*68:02"}, "[3]": {"target": "HLA-B*18:01"}, "[4]": {"target": "HLA-B*58:01"}, "[5]": {"target": "HLA-B*51:01"}, "[6]": {"target": "HLA-B*46:01"}, "[7]": {"target": "HLA-A*23:01"}, "[8]": {"target": "HLA-A*02:16"}, "[9]": {"target": "HLA-B*07:02"}, "[10]": {"target": "HLA-A*26:01"}},
  "data": [
    {"sequence": "FTARIIIFS", "values": [
      {"measurement": "Kd", "setting": "[1]", "value": "≥ 5", "unit": "µM"},
      {"measurement": "Kd", "setting": "[2]", "value": 0.0276, "unit": "µM"},
      {"measurement": "Kd", "setting": "[3]", "value": "≥ 20", "unit": "µM"},
      {"measurement": "Kd", "setting": "[4]", "value": "≥ 5", "unit": "µM"},
      {"measurement": "Kd", "setting": "[5]", "value": "≥ 20", "unit": "µM"},
      {"measurement": "Kd", "setting": "[6]", "value": "≥ 20", "unit": "µM"},
      {"measurement": "Kd", "setting": "[7]", "value": "≥ 20", "unit": "µM"},
      {"measurement": "Kd", "setting": "[8]", "value": "≥ 20", "unit": "µM"},
      {"measurement": "Kd", "setting": "[9]", "value": "≥ 5", "unit": "µM"},
      {"measurement": "Kd", "setting": "[10]", "value": "≥ 20", "unit": "µM"}
    ]}
  ]
}
